This note sets out measurements from publication PMC8164026, “Intrapulmonary administration of purified NEIL2 abrogates NF-κB–mediated inflammation”.

The series deals with His-RelA (p65) (UniProt Q04206 1-551). In words: EMSA; EMSA: 10 mM Tris-HCl pH 7.9, 50 mM NaCl, 1 mM MgCl2, 1 mM EDTA, 5 mM DTT, 5% glycerol, 0.5 µg poly dI.dC, 2-10 µg acetylated BSA, 10 min, room temperature; gel. The settings on record: protein: recombinant, tags: His, chain copies: 2. On the technique in general: A gel shift assay detects complexes by their altered migration in electrophoresis.
Sequence of His-RelA (p65) (Q04206 whole entry): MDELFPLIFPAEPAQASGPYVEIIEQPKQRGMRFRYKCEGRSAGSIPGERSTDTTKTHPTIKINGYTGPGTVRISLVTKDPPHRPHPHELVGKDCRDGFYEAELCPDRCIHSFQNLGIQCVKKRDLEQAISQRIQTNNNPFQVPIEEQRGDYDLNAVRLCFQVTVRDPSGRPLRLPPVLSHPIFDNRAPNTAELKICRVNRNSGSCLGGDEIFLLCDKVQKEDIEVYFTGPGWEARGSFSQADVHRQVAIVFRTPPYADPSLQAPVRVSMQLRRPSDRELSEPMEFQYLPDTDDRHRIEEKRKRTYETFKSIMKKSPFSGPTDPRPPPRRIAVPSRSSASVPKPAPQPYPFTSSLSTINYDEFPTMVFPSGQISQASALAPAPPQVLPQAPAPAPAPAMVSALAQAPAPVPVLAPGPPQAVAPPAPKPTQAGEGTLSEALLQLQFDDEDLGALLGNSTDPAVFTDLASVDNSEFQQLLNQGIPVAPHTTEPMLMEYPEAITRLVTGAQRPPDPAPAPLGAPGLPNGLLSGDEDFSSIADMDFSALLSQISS

B1: IL6-M (dsDNA)
DNA 1: TTGCTATTAAATGTGTTCGTTTGTACAGAGTCTCAAAA
DNA 2: TTTTGAGACTCTGTACAAACGAACACATTTAATAGCAA
On to B1, for which the binding result (blunt) is on record as “no binding”.

B2: C2-M (dsDNA)
DNA 1: GGACCCTGAGCTCAGAAAAGGTCCCTGGTCCACGGGCT
DNA 2: AGCCCGTGGACCAGGGACCTTTTCTGAGCTCAGGGTCC
Regarding B2, where the note is “blunt”, the binding result is “no binding”.

B3: C1-M (dsDNA)
DNA 1: GAAACACCCTGTACTCCGAAAAGGTCCCTGGCCCGGAGCTCTG
DNA 2: CAGAGCTCGGGGCCAGGGACCTTTTCGGAGTACAGGGTGTTTC
Turning to B3, the binding result (blunt as printed, one internal mismatch outside the motif (printed)) is given as “no binding”.
